{
  "source": "patent US11708423B2",
  "about": "“Chimeric engulfment receptor molecules and methods of use” (CERO THERAPEUTICS, INC., priority 2017, dated 2023)",
  "molecules": {"B1": {"name": "CER123: Tim4 binding and transmembrane domains, TLR2 primary and TRAF6 secondary signaling domains; SEQ ID NO:150 (protein)", "chain": "MSKGLLLLWLVTELWWLYLTPAASEDTIIGFLGQPVTLPCHYLSWSQSRNSMCWGKGSCPNSKCNAELLRTDGTRIISRKSTKYTLLGKVQFGEVSLTISNTNRGDSGVYCCRIEVPGWFNDVKKNVRLELRRATTTKKPTTTTRPTTTPYVTTTTPELLPTTVMTTSVLPTTTPPQTLATTAFSTAVTTCPSTTPGSFSQETTKGSAFTTESETLPASNHSQRSMMTISTDIAVLRPTGSNPGILPSTSQLTTQKTTLTTSESLQKTTKSHQINSRQTILIIACCVGFVLMVLLFLAFLHRFHGLWYMKMMWAWLQAKRKPRKAPSRNICYDAFVSYSERDAYWVENLMVQELENFNPPFKLCLHKRDFIPGKWIIDNIIDSIEKSHKTVFVLSENFVKSEWCKYELDFSHFRLFDENNDAAILILLEPIEKKAIPQRFCKLRKIMNTKTYLEWPMDEAQREGFWVNLRAAIKSMSLLNCENSCGSSQSESDCCVAMASSCSAVTKDDSVGGTASTGNLSSSFMEEIQGYDVEFDPPLESKYECPICLMALREAVQTPCGHRFCKACIIKSIRDAGHKCPVDNEILLENQLFPDNFAKREILSLMVKCPNEGCLHKMELRHLEDHQAHCEFALMDCPQCQRPFQKFHINIHILKDCPRRQVSCDNCAASMAFEDKEIHDQNCPLANVICEYCNTILIREQMPNHYDLDCPTAPIPCTFSTFGCHEKMQRNHLARHLQENTQSHMRMLA", "modifications": "CER123 protein"}, "B2": {"name": "CER21: Tim4 binding and transmembrane domains, TLR8 signaling domain; SEQ ID NO:88 (protein)", "chain": "MSKGLLLLWLVTELWWLYLTPAASEDTIIGFLGQPVTLPCHYLSWSQSRNSMCWGKGSCPNSKCNAELLRTDGTRIISRKSTKYTLLGKVQFGEVSLTISNTNRGDSGVYCCRIEVPGWFNDVKKNVRLELRRATTTKKPTTTTRPTTTPYVTTTTPELLPTTVMTTSVLPTTTPPQTLATTAFSTAVTTCPSTTPGSFSQETTKGSAFTTESETLPASNHSQRSMMTISTDIAVLRPTGSNPGILPSTSQLTTQKTTLTTSESLQKTTKSHQINSRQTILIIACCVGFVLMVLLFLAFLHHLFYWDVWFIYNVCLAKVKGYRSLSTSQTFYDAYISYDTKDASVTDWVINELRYHLEESRDKNVLLCLEERDWDPGLAIIDNLMQSINQSKKTVFVLTKKYAKSWNFKTAFYLALQRLMDENMDVIIFILLEPVLQHSQYLRLRQRICKSSILQWPDNPKAEGLFWQTLRNVVLTENDSRYNNMYVDSIKQY", "modifications": "CER21 chimeric engulfment receptor"}, "B3": {"name": "CER122: Tim4 binding and transmembrane domains, TLR2 primary and DAP12 secondary signaling domains; SEQ ID NO:149 (protein)", "chain": "MSKGLLLLWLVTELWWLYLTPAASEDTIIGFLGQPVTLPCHYLSWSQSRNSMCWGKGSCPNSKCNAELLRTDGTRIISRKSTKYTLLGKVQFGEVSLTISNTNRGDSGVYCCRIEVPGWFNDVKKNVRLELRRATTTKKPTTTTRPTTTPYVTTTTPELLPTTVMTTSVLPTTTPPQTLATTAFSTAVTTCPSTTPGSFSQETTKGSAFTTESETLPASNHSQRSMMTISTDIAVLRPTGSNPGILPSTSQLTTQKTTLTTSESLQKTTKSHQINSRQTILIIACCVGFVLMVLLFLAFLHRFHGLWYMKMMWAWLQAKRKPRKAPSRNICYDAFVSYSERDAYWVENLMVQELENFNPPFKLCLHKRDFIPGKWIIDNIIDSIEKSHKTVFVLSENFVKSEWCKYELDFSHFRLFDENNDAAILILLEPIEKKAIPQRFCKLRKIMNTKTYLEWPMDEAQREGFWVNLRAAIKSYFLGRLVPRGRGAAEAATRKQRITETESPYQELQGQRSDVYSDLNTQRPYYK", "modifications": "CER122 protein"}, "B4": {"name": "CER104: Tim4 binding and transmembrane domains, TLR8 primary and DAP12 secondary signaling domains; SEQ ID NO:133 (protein)", "chain": "MSKGLLLLWLVTELWWLYLTPAASEDTIIGFLGQPVTLPCHYLSWSQSRNSMCWGKGSCPNSKCNAELLRTDGTRIISRKSTKYTLLGKVQFGEVSLTISNTNRGDSGVYCCRIEVPGWFNDVKKNVRLELRRATTTKKPTTTTRPTTTPYVTTTTPELLPTTVMTTSVLPTTTPPQTLATTAFSTAVTTCPSTTPGSFSQETTKGSAFTTESETLPASNHSQRSMMTISTDIAVLRPTGSNPGILPSTSQLTTQKTTLTTSESLQKTTKSHQINSRQTILIIACCVGFVLMVLLFLAFLHHLFYWDVWFIYNVCLAKVKGYRSLSTSQTFYDAYISYDTKDASVTDWVINELRYHLEESRDKNVLLCLEERDWDPGLAIIDNLMQSINQSKKTVFVLTKKYAKSWNFKTAFYLALQRLMDENMDVIIFILLEPVLQHSQYLRLRQRICKSSILQWPDNPKAEGLFWQTLRNVVLTENDSRYNNMYVDSIKQYYFLGRLVPRGRGAAEAATRKQRITETESPYQELQGQRSDVYSDLNTQRPYYK", "modifications": "CER104 protein"}},
  "key": {"[1]": {"tested_on": "HCC159 lung adenocarcinoma cells", "assay": "Interferon Gamma secretion, HCC159 co-culture", "type": "cell-based", "settings": "Osimeritinib 0, 1, 5 nM; 18 hours", "method": "HCC159 lung adenocarcinoma cells were co-cultured with CER123- or CER126-expressing CD4+ T cells with increasing concentrations of Osimeritnib (0, 1 nM, 5 nM). After 18 hours of co-culture, bulk supernatants were evaluated using a LDH-based cytotoxicity assay. T cells assays were performed using purified, EGFR^+ (transduction marker), CER modified T cells 7 days after activation using CD3 & CD28 microbeads at effector:target cell ratios of 2:1 or 5:1. Control “Mock” T cells were transduced with vector alone. […] Bulk supernatants were also analyzed after 18 hours of co-culture for Interferon Gamma (IFNγ) secretion (FIG. 50). Control “Mock” T cells were transduced with vector alone."}, "[2]": {"tested_on": "pHrodo-red labeled, dexamethasone treated thymocytes", "assay": "Luminal degradation of engulfed thymocytes in CER-transduced Ba/F3 cells (time-lapse imaging)", "type": "cell-based", "settings": "FACS purified after overnight co-culture", "method": "Luminal degradation in CER-transduced cells was also evaluated following engulfment. Ba/F3 cells transduced with CER21 or CER116 were co-cultured with pHrodo-red labeled, dexamethasone treated thymocytes overnight and subsequently purified by FACS. Target cell destruction was visualized by time-lapse imaging and quantified over time (FIG. 85F). […] CER116-harboring Ba/F3 cells (top) catabolize target cells, allowing cells to return to homeostasis and resume immune responsiveness. The addition of a TRAF6 signaling domain to the CER construct promotes rapid destruction of engulfed material."}, "[3]": {"tested_on": "A549 ALK+Luciferase+ cells", "assay": "Adoptive transfer of CER T cells with ALK inhibitor in A549 ALK+ xenograft", "type": "in vivo, immunodeficient (NSG) mice", "settings": "Alectinib 15 mg/kg intraperitoneally + 10e6 CER-transduced human T cells, NSG mice", "method": "The combination of CER therapy and ALK inhibitor therapy was also evaluated in vivo. […] A549 ALK+Luciferase^+ cells were engrafted into immunodeficient (NSG) mice 21 days prior to initiation of study and evaluated for engraftment by bioluminescent emission and tumor volume seven days later. […] Animals received 10 μg of systemic IL-2 every 24 hours×3 days following cell infusion and then monitored for tumor progression and cell expansion and persistence thereafter.\nPeripheral blood sample was stained with anti-human CD45-APC-conjugated antibody 8 days following cell infusion. Each FACS plot indicates a single animal. A bar graph depicting frequency of human CD45+ cells/μL of peripheral blood at days 4, 8, 16, and 25 post-adoptive transfer of CER122+ T cells (FIG. 77B). Peripheral blood was obtained by retro-orbital bleeding and examined for evidence of T cell engraftment by FACS. The frequency of human-CD45 cells/μL of peripheral blood was determined by FACs using TRUCOUNT (BD Biosciences) beads."}, "[4]": {"tested_on": "SCC152 cells", "assay": "LDH cytotoxicity assay, CD4 T cell/CER104 + CD8 T cell/HPV16 E7 TCR co-culture", "type": "cell-based, human", "settings": "CD4/CER + CD8/HPV16 E7 TCR 1:1, 4 hours", "source_text": "LDH is a cytosolic enzyme that is released by a cell into cell culture media when the plasma membrane is damaged. Thus, LDH's presence in culture medium is a marker for cell death. LDH assays are capable of detecting low level damage to cell membrane which cannot be detected using other methods. LDH may be detected using colorimetric or fluorometric methods."}, "[5]": {"tested_on": "CER-transduced CD4+ T cells", "assay": "Mass cytometry (CyTOF) with viSNE marker analysis of CER-transduced CD4+ T cells", "type": "cell-based, human", "source_text": "CD4+ T cells were transduced with lentiviral vector comprising CER104, CER116, or CER117 nucleic acid. CER104 (SEQ ID NO:133) comprises a Tim4 binding domain, Tim4 transmembrane domain, and an engulfment signaling domain comprising a primary engulfment signaling domain comprising a TLR8 signaling domain and a secondary engulfment signaling domain comprising a DAP12 signaling domain. CER116 (SEQ ID NO:143) comprises a Tim4 binding domain, Tim4 transmembrane domain, and an engulfment signaling domain comprising a primary engulfment signaling domain comprising a TRAF6 signaling domain and a secondary engulfment signaling domain comprising a TLR8 signaling domain. CER117 (SEQ ID NO:144) comprises a Tim4 binding domain, Tim4 transmembrane domain, and an engulfment signaling domain comprising a primary engulfment signaling domain comprising a TLR8 signaling domain and a secondary engulfment signaling domain comprising a TRAF6 signaling domain. CER-transduced CD4+ T cells were co-cultured with E7 TCR-transduced CD8+ T cells and HPV+SCC152 target cells and interrogated by mass cytometry (CyTOF) with viSNE for visualization of high dimensional single cell data (FIGS. 82-84). Intact CER-transduced CD4+ T cells are shown in plots displaying tSNE1 (horizontal) and tSNE2 (vertical) axes. 27 intracellular markers were used for the viSNE analysis. Each dot represents a single cell. […] Red represents high expression and blue represents low expression for each marker. Populations of CD4^+ T cells were generated using a clustering algorithm from all 27 markers and overlaid onto the viSNE map. […] Populations of CD4^+ T cells were generated using a clustering algorithm from all 18 markers and overlaid onto the viSNE map (FIG. 83A). […] Color plots by 18 intracellular markers (CD28, CCR7, CD45RA, PD1, CD127, Perforin, CD49d, CD85j, CD38, CD27, Granzyme B, CD57, CD25, CD69, CD154, CD56, HLA-DR, and TCRγδ) show the phenotype across viSNE ‘islands’ (FIG. 83B). Red represents high expression and blue represents low expression for each marker. Highlighted region with arrow indicates cells expressing T cell activation marker CD69. Populations of CD4^+ T cells were generated using a clustering algorithm from 18 intracellular markers (CD28, CCR7, CD45RA, PD1, CD127, Perforin, CD49d, CD85j, CD38, CD27, Granzyme B, CD57, CD25, CD69, CD154, CD56, HLA-DR, and TCRγ6) and overlaid onto the viSNE map. […] Color plots by the 18 intracellular markers show the phenotype across viSNE ‘islands’ (FIG. 84B). Red represents high expression and blue represents low expression for each marker. Highlighted region with arrow indicates cells expressing the naïve T cell marker CD45RA."}},
  "data": [
    {"molecule": "B1", "values": [
      {"measurement": "Interferon Gamma (IFNγ) secretion", "setting": "[1]", "value": "inducible cytokine secretion"}
    ]},
    {"molecule": "B2", "values": [
      {"measurement": "luminal content degradation over time", "setting": "[2]", "value": "broken down over-time"}
    ]},
    {"molecule": "B3", "values": [
      {"measurement": "anti-tumor response (tumor volume, bioluminescence)", "setting": "[3]", "value": "enhanced anti-tumor response to ALK+NSCLC in vivo"}
    ]},
    {"molecule": "B4", "values": [
      {"measurement": "cytolytic activity (LDH cytotoxicity assay)", "setting": "[4]", "value": "enhanced cytolytic activity"},
      {"measurement": "memory formation after antigen encounter", "setting": "[5]; CD4+ T cells", "value": "associated with memory formation after antigen encounter"},
      {"measurement": "viSNE islands expressing T cell activation marker CD69", "setting": "[5]; CD4+ T cells after antigen encounter", "value": "enrichment of islands expressing the T cell activation marker CD69"},
      {"measurement": "viSNE islands expressing intracellular marker IFNγ", "setting": "[5]; CD4+ T cells after co-culture with E7 TCR CD8+ T cells and SCC152 cells", "value": "enrichment of islands expressing the intracellular marker IFNγ"},
      {"measurement": "viSNE islands expressing naïve T cell marker CD45RA within the CCR7+ population", "setting": "[5]; compared to controls", "value": "loss of islands expressing the naïve T cell marker CD45RA"}
    ]}
  ]
}
